From the supplement of paper PMC9170038

Tested on: K4 kissing-loop RNA reporter
Assay: apparent KD of K4 kissing-loop reporter; higher = weaker reporter binding
Conditions: Eterna round: R107
Description: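 RNA-MaP round R107: designed RNA switches with theophylline, tryptophan, arginine or FMN aptamers are transcribed on-chip within common flanks. They are titrated with a labelled K4 kissing-loop RNA reporter in RNA-MaP buffer (100 mM Tris pH 7.5, 80 mM KCl, 4 mM MgCl2), without ligand or with the indicated ligand. Median apparent KD per design.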

[1] = input ligand: theophylline 20 uM
[2] = input ligand: tryptophan 2.4 mM
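Also: bound reporter read as fluorescence of individual clusters on recovered sequencing chips by microscopy, with normalized cluster intensities fitted with a binding model.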

Row | Sequence | apparent KD of K4 kissing-loop reporter (input ligand: FMN 200 uM) [nM] | apparent KD of K4 kissing-loop reporter (input ligand: arginine 13.2 mM) [nM] | apparent KD of K4 kissing-loop reporter (input ligand: none) [nM] | apparent KD of K4 kissing-loop reporter [1] [nM] | apparent KD of K4 kissing-loop reporter [2] [nM]
1 | CGCAGUGAUGUUGCUUAUAUUCUUGGUUAACGAGGACCGGUACGGCCGCCACUCGAUUUCUAUCUAUUCCAGUGUUAAUUUGAGU [JR_ExcTryptoA_Sub005] | 364 | 429 | 419 | 568 | 271
2 | CGCAGUGAUGUUGCUUUUAUUCUUGGUUAACGAGGACCGGUACGGCCGCCACUCGAUUUCUAUCUAUUCCAGUGUUUUUUUGAGU [JR_ExcTryptoA_Sub004] | 261 | 374 | 304 | 464 | 195
3 | CGCGCCCAGCCGGAUACCAGUGACCCGCUGGGAACCGCGGGCCCAGAGUGAUGUUCGGGACACCCUUGGCAGCCGCCUGGGCGGG [#2 Same State - Theophylline B Attempt #16 (HarryS)] | 1350 | 606 | 597 | 460 | 608
4 | CGGAGUGAUGUUCCUUUUAUUAAUUAUUUACGAGGACCGGUACGGCCGCCACUCGAUUUAGCUUUUAUUUAAUGCUUGGAUGUUU [JR_SSTryptoA_Sub004] | 130 | 212 | 140 | 208 | 66.3
5 | CGGCGGAGUGAUGUUCUGCUCGCUCCGGAUACCAGCUUCGCCAGAGGCCCUUGGCAGCCGGGCGGCCCAGUGAUGUUGGGUUGCG [Same State Theophylline A GF 17] | 297 | 243 | 277 | 246 | 237
6 | CGUAGCAGAUGAAGGAGCGGCUACCUGUAUCAGGCAACUGCCUGAGUGAUGUUCAGGUAUAGCCAGGUAGGUCGCAUCUGCUACG [Arg B Ex t9b] | 240 | 206 | 214 | 211 | 212
7 | CGUUCCUCUGUCGAUACCAGCUUCAGUUGGCGGCCAGUGAUGUUGGUAUUGCCGAUGCCAAGCCCUUGGCAGCGAUAUGAGACCC [Aredi] | 572 | 403 | 597 | 265 | 439
8 | CGUUUAUAGCAGGAUACCAGUACCCAUAAAGUACGUUAAUAGUAGAGUGAUGUUCUAAAGUACCCUUGGCAGCUUCCCGUGAGUG [ExTheophylB.T] | 88.9 | 129 | 103 | 134 | 67.8
9 | CGUUUAUAGCAGGAUACCAGUACCCAUUAUGUACGUUUAUAGUAGAGUGAUGUUCUAAAGUACCCUUGGCAGCUUCCCGUGACCC [ExTheophylB.Z] | 113 | 171 | 131 | 179 | 85.4
10 | CGUUUAUAGCAGGAUACCAGUACGGAUAAAGUACGUUAAUAGUAGAGUGAUGUUCUAAAGUACCCUUGGCAGCUUAGAGUGAGUG [ExTheophylB.O] | 107 | 149 | 112 | 144 | 78.1
11 | CGUUUAUAGCAGGAUACCAGUACGGAUAAGGUACGUUAAUAGUAGAGUGAUGUUCUAAAGUACCCUUGGCAGCUUAGAGUGAGUG [#20 K4 Theophylline B Exclusion] | 90.3 | 147 | 142 | 126 | 92.2
12 | CGUUUAUAGGAGGAUACCAGUACGGAUAAAGUACGUUAAUAGUAGAGUGAUGUUCUAAAGUACCCUUGGCAGCUUAGAGUGAGUG [ExTheophylB.N] | 100 | 104 | 106 | 121 | 73.6
13 | CUCGUGGGUUUGAGAGGGCUUGUGGGAAGUAAGGAUAUUUAGGGAGGAAGAAGGUACUAUAGAAUAUAGUGAUGUUAUAUAUGGG [SSFMNA.Y] | 301 | 224 | 289 | 406 | 244
14 | CUGAGCCUGACGAAAGUCAGGCUCUGCGAGCGAGGACCGGUACGGCCGCCACUCGGUGCAGUGAUGUUGCAUGGCCGCAAGGCCG [#2 Exclusion - Tryptophan A Attempt #18 (HarryS)] | 263 | 289 | 207 | 256 | 262
15 | CUGCAAAAGUCGGCCGCCACUCCGGGCCCUAUAAAUGGGCGCAGUGAUGUUGCGGCUAGGCCUCUGAGGACCGGGACUUUGUAAC [Aratan] | 190 | 64.7 | 87 | 131 | 218
16 | CUGUAUCAUAUUGAUACCAGAGAAAGAACCAGUGAUGUUGGAAAAGACGAAUAAAUUAUACUCCCUUGGCAGCGGAAAUGAACAG [Totally accidental] | 73 | 85.6 | 75.8 | 105 | 59.9
17 | CUUGGUCUACGAAGGAGCGCCGUGCAGUGAUGUUGCAGUCAGAUCGAGUGAUGUUUCGGGCGGCAGGUAGGUCGCGUGGCCCUUU [Excusion Arginine B GF 26] | 633 | 455 | 613 | 587 | 579
18 | GACAGUCGGUGUUAAUGACAGUUACGCGAUACCAGCGAAACAGUACGCCCUUGGCAGCGCAGUGAUGUUGCGCGCCUAGUGUGGU [Esbiceve] | 99.5 | 94.8 | 101 | 92.5 | 97.2
19 | GACCUAAGCUAUGAUACCAGUCUGGCACGAAGAAGUGAUGUUUCCCAGCGUUUGUCACUUGACCCUUGGCAGCAUGCGAUCAGCU [theeternabot_sameState_KL_Theo_B_29] | 197 | 106 | 151 | 165 | 128
20 | GACGUUGAAGCGGCCGCCACUAGGAAGGGUACGGAGAGUACAUCUCACGGAGAGUGAUGUUCUCAUAGGACCGGGCUCAUAUCAA [theeternabot_sameState_KL_Trp_B_21] | 308 | 215 | 605 | 238 | 362
21 | GAGGAUUGAACGGCCGCCACUGCGCGCAGCUGCAAUCGAGUGAUGUUCCAUCAGUUGUCCAGUUCCAGGACCGGGUUCCGAUGCC [theeternabot_exclusion_KL_Trp_B_12] | 499 | 245 | 401 | 535 | 471
22 | GAUACGAAGCAGUGAUGUUGCUUAUGAGAAGGAGCGCACGAAAGUGCAGGUAGGUCGCUCAGCCAUGUGGACGAAAACGUCCACA [whbob_SS_Arginine_A_sa111] | 90.2 | 109 | 97.4 | 126 | 78.1
